Data as given in article PMC5882647, “Simultaneous Monitoring of Cell-surface Receptor and Tumor-targeted Photodynamic Therapy via TdT-initiated Poly-G-Quadruplexes”.

Molecular target: c-Met-Fc fusion protein (UniProt P08581 25-932)
Assay: EMSA; EMSA: DNA (printed 200 nmol) with c-Met-Fc or BSA (printed 200 nmol) in 10 uL DPBS, 30 min, 37 C; native 4-20% TBE gel, SYBR Green II; pH not stated
Details: protein: recombinant; tags: Fc; chain copies: 2

c-Met-Fc fusion protein, sequence (P08581 25-932): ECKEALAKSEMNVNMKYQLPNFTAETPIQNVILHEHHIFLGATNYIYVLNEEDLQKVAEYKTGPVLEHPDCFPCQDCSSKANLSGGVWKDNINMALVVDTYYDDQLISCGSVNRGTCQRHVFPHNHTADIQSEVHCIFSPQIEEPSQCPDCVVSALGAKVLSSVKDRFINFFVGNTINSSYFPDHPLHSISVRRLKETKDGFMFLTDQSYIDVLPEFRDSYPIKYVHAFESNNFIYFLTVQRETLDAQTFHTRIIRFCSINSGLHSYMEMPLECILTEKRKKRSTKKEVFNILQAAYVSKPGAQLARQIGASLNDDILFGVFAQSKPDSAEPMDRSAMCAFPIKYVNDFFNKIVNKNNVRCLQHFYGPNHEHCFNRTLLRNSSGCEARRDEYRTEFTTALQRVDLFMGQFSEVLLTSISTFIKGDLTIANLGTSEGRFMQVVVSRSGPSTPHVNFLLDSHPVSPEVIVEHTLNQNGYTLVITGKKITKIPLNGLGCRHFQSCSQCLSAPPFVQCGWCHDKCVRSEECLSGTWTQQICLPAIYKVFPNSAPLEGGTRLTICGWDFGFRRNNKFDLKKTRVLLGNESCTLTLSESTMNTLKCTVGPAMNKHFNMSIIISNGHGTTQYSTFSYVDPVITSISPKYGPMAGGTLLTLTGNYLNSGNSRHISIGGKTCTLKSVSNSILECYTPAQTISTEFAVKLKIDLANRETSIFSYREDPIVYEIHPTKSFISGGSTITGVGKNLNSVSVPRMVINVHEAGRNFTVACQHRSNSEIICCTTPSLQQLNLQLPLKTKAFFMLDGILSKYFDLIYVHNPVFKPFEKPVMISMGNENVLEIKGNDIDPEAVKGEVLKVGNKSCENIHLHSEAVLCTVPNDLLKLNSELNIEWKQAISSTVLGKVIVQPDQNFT

B1: aptamer-primer (AP; SL1 aptamer + poly-T linker + primer) (ssDNA)
DNA: ATCAGGCTGGATGGTAGCTCGGTCGGGGTGGGTGGGTTGGCAAGTCTGATTTTTTTTTTTTTTTTTTAATACAACCTCTCA
binding result: binds

B2: Lib-primer (LP) (ssDNA)
DNA: ATTTAGAGTGACGCAGCAGGACACGGTGGCTTAGTTTTTCAAGGCTTAGTTTTTTTTTTTTTTTTTTAATACAACCTCTCA
binding result: no binding
